The values that follow come from US20150004190A1.

“And” between values parts separate entries of the source, which are not always exact repeats. Equal entries are not always repeated. Where two headings read alike, the source gives them in different places.

Experiment [1] concerns the target P1-PE (HIV-1 clade B HXB2) (UniProt P04578).
Experiment [2] addresses P1 (aa 630-685) clade B HXB2 HIV-1 (HIV-1 clade B HXB2) (UniProt P04578). Briefly: ELISA on coated peptide (FIG. 1). A general note: An ELISA detects its analyte on a solid surface through an enzyme-linked reagent.
Experiment [3] shares this target. Briefly: ELISA, P1 without lipid, nonlinear regression.
Experiment [4] deals with P1-PE (HIV-1 clade B HXB2) (UniProt P04578). Put plainly: ELISA, P1-PE in raft liposomes R2 (P1:lipids 1 for 20), nonlinear regression.
Experiment [5] has the same target. Put plainly: ELISA, P1-PE in raft liposomes R1 (P1:lipids 1 for 100), nonlinear regression.
Experiment [6] shares this target. Put plainly: ELISA, P1-PE in viral liposomes V2 (P1:lipids 1 for 20), nonlinear regression.
The target is the same in experiment [7]. Put plainly: ELISA, P1-PE in viral liposomes V1 (P1:lipids 1 for 100), nonlinear regression.

Take 2F5 IgA2 (antibody): the Kd (as a rule, the free concentration of one partner at which half of the binding sites on the other are occupied at equilibrium, for simple one-to-one binding) in experiment [1] was 0.15 nM and 0.21 nM; in experiment [3], 0.2 nM; in experiment [4], 0.061 nM; in experiment [5] it was 0.05 nM; in experiment [6], 0.024 nM; in experiment [7], 0.024 nM. Besides, in experiment [2], the antibody concentration of equivalent binding activity worked out at 0.05 nM.

Turning to 2F5 IgG1 (antibody), the Kd was 1.33 nM and 0.69 nM in experiment [1]; 7.38 nM in experiment [3]; 0.51 nM in experiment [4]; 0.5 nM in experiment [5]; 0.41 nM in experiment [6]; 0.31 nM in experiment [7]. The antibody concentration of equivalent binding activity in experiment [2] is 6.25 nM.
